Reference: paper PMC3189207 (2011)

T1: ABR (Homo sapiens)
T1 chain: RNTLYFSTDV

T2: APC (Homo sapiens)
T2 chain: HSGSYLVTSV

T3: AHDC1 (Homo sapiens)
T3 chain: PEDTFTVTSL

T4: ZO2 (Homo sapiens)
T4 chain: QSARYDTEL

T5: ANKS4B (Homo sapiens)
T5 chain: QPGQLVDTSL

T6: ZNF654 (Homo sapiens)
T6 chain: SSAQPSETIL

B1: Scrib PDZ1 (protein)
chain: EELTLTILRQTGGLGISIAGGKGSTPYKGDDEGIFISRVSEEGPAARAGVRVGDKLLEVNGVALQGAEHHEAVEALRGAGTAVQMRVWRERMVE
B2: Scrib PDZ3 (protein)
chain: PVEEIRLPRAGGPLGLSIVGGSDHSSHPFGVQEPGVFISKVLPRGLAARSGLRVGDRILAVNGQDVRDATHQEAVSALLRPCLELSLLVRRDPAPP
B3: Scrib PDZ2 (protein)
chain: QRHVACLARSERGLGFSIAGGKGSTPYRAGDAGIFVSRIAEGGAAHRAGTLQVGDRVLSINGVDVTEARHDHAVSLLTAASPTIALLLEREAGGP

How the values were obtained:
Assay in all cases: fluorescence polarization
ABR = molecular target: T1, ABR
APC = molecular target: T2, APC
AHDC1 = molecular target: T3, AHDC1
ZO2 = molecular target: T4, ZO2
ANKS4B = molecular target: T5, ANKS4B
ZNF654 = molecular target: T6, ZNF654

Binder	Kd (ABR) [µM]	Kd (APC) [µM]	Kd (AHDC1) [µM]	Kd (ZO2) [µM]	Kd (ANKS4B) [µM]	Kd (ZNF654) [µM]
B1	12.5	12.3	19.2	16	–	–
B2	2.9	6.7	10.4	13.7	28.2	18.3
B3	10.4	9.5	–	–	–	32.1
